Consider 84 variants from the RNAGym collection of RNA variant scans (doi:10.1073/pnas.2313332121).

First the molecules themselves.
B1: TPR 5TU (parent)
chain: GGAUCUUCUCGAUCUAACAAAAAAGACAAAUCUGCCACAAAGCUUGAGAGCAUCUUCGGAUGCAGAGGCGGCAGCCUUCGGUGGCGCGAUAGCGCCAACGUUCUCAACUAUGACACGCAAAACGCGUGCUCCGUUGAAUGGAGUUUAUCAUG

This sample holds only a part of the variants without activity.

Variants of B1 are the subject of the data set. In words: polymerase ribozyme fitness, log enrichment relative to wild type (log ratio); higher = more active; in vitro selection for triplet polymerase activity. Summed up:
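Both subunits of a heterodimeric triplet polymerase ribozyme were given their own mutant library, built by PCR and transcribed. Each library was annealed with a biotinylated primer, the partner subunit and triplets, incubated frozen at −7 °C, and its extended constructs gel-excised, captured on streptavidin beads and amplified by RT-PCR, all in one round done in triplicate. Fitness is the logarithm of genotype enrichment relative to wild-type enrichment, with replicates averaged by inverse-variance weighting. That logarithm is base 2, and Illumina-sequenced genotypes needed ≥10 input reads and ≥1 read per output.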
For the variant A41G U53C U55A U82G U127G, the “polymerase ribozyme fitness (log ratio)” value was -4.02.
Consider A41C U56A C63A G83A, for which the “polymerase ribozyme fitness (log ratio)” value was -0.629.
The value for A41G C54G G84A U148C was -3.53; that for A41C G50A A52C C54U U56A C75U C87U U146G A150G was at most -4.2; that for A41G C76U G86A G117A was -0.646.
Regarding A41C U45A G68A C85A C118G C129U U144C U146A, the “polymerase ribozyme fitness (log ratio)” value was at most -4.2.
Next, A41C U56A A91G A97G A142U: -3.86; G42C A49G A138C: at most -4.2; A41C C87U A120C: -1.53.
The value for G42A U55A was -3.81; that for A41G U104G C125G was -1.21; that for A41U C93A A122G was -4.19.
Next, A41C C69A: -2.53; A41U A91U G140A: at most -4.2; A41C C85G A113C: -4.19.
For G42C G62C A73C G94U C118G A120U G133C, the “polymerase ribozyme fitness (log ratio)” value is at most -4.2.
The value for A41G G58C U61C U82G C87G U104G C118G G141U was at most -4.2; that for G42C G48A C75G C96U U104A was at most -4.2; that for A41C U56A C87U was -1.41.
The value for A41U U53A G88A U101G C108U G128C A142C was at most -4.2; that for G42A G59A A66C A73U U78A C87G U146G C149A was at most -4.2.
For the variant A41C U61A C76A A91U C99A A110U A150C, the “polymerase ribozyme fitness (log ratio)” value was at most -4.2.
Next, A41U A89U A91C: -3.97.
Next, G42A U53A: at most -4.2.
Next, A41U U61A G68U A107C U145G: at most -4.2; A41C G83A C116A: -0.205; G42C G48A C103A U144C: at most -4.2.
For G42C U55A G70C C96U, the “polymerase ribozyme fitness (log ratio)” value is at most -4.2.
In the case of A41G G88A G143A, the “polymerase ribozyme fitness (log ratio)” value is at most -4.2.
The value for A41C U53C C125G U144A was -2.53; that for A41C C93U C105U was -1.68.
For G42C A47C C57U G81C C95A, the “polymerase ribozyme fitness (log ratio)” value is at most -4.2.
The value for A41C C116G was -0.175.
Turning to G42A G86A C103U A119C, the “polymerase ribozyme fitness (log ratio)” value is at most -4.2.
Next, A41U G124A: -1.29.
As to A41U G124U, the “polymerase ribozyme fitness (log ratio)” value is -0.896.
Take G42A G86A C118A: the “polymerase ribozyme fitness (log ratio)” value is at most -4.2.
Next, A41G U55A C93U: -0.68; A41C G50C G83U C95A C99U C105G A137C: at most -4.2.
Next, A41G A60G A97U: -0.347; A41C G59U C87U A120U A122C G124U U146C: -2.2; A41C C95U A119G: -0.978.
For A41G C54G G117U G124C, the “polymerase ribozyme fitness (log ratio)” value was -1.19.
Regarding G42C C99U, the “polymerase ribozyme fitness (log ratio)” value was at most -4.2.
The value for G42A A52G U61G G86A C114A was -3.88; that for A41C G88A G92A A115U U151G was at most -4.2; that for A41G C51A G83A was -2.57.
For the variant A41C G59A G94A A119C, the “polymerase ribozyme fitness (log ratio)” value is -1.52.
The value for G42A G48A G68A G86U C132A was at most -4.2.
The value for A41U A66C G88A A113C G143A U146C was at most -4.2.
Next, A41C U55A A97G: -0.161.
As for G42A U56A A60U C76A C96A U102G U127A G141U A150G, the “polymerase ribozyme fitness (log ratio)” value was at most -4.2.
The value for A41C U56A U82A A150G was -1.45; that for A41C U82C was -1.14.
Next, A41U C63G C85A G152U: at most -4.2.
As for G42C G68U C85U G128A A150C, the “polymerase ribozyme fitness (log ratio)” value was at most -4.2.
Regarding A41C G46U C76A U102A C131G, the “polymerase ribozyme fitness (log ratio)” value was at most -4.2.
The value for A41G A98U C103G A138C was at most -4.2; that for A41C G50A G74A U82G C95U A107C was at most -4.2.
Next, A41C G68C: at most -4.2; A41C C72G A106G G143C U151G: at most -4.2.
As for A41G G94U C114U A150G, the “polymerase ribozyme fitness (log ratio)” value is -3.98.
The value for A41C G152U was -2.69; that for A41U U55A C79U G83A was at most -4.2; that for A41C G94C was -1.8.
The value for A41U G46U A52U was -4.03; that for G42C U45A A52C U77G C85A C116G was at most -4.2.
With G42A G58C G59C G88C A91G A106C A107G, the “polymerase ribozyme fitness (log ratio)” value is at most -4.2.
The value for A41C G86U A89G G140A was at most -4.2; that for G42C C76U C85U A89G U104C was at most -4.2.
Next, A41U G80C G88U C103A A107G: at most -4.2; A41U A120C C125A A142C: -4.12; A41C C87A C95U A115C U151G: at most -4.2.
The value for A41G G83C G143C was -3.18; that for G42C U56G C114U U127A A138C was at most -4.2.
Consider G42A G88A C93G U145G C149A, for which the “polymerase ribozyme fitness (log ratio)” value is at most -4.2.
The value for A41G C57G C76U G94A A110G C116G U139G was -4.11; that for A41G G42A G48C C93A A106C U109C A137C was at most -4.2; that for A41C U55A G133A was at most -4.2.
Next, A41G G50C C85U C87A C103U C105G A115U: at most -4.2; G42C A47G C57A C75G C125G: at most -4.2.
For the variant G42U A60G U61G C96G C99G C125U A150C, the “polymerase ribozyme fitness (log ratio)” value was at most -4.2.
A41C G80A C87A: the “polymerase ribozyme fitness (log ratio)” value was at most -4.2.
Consider A41C C95A, for which the “polymerase ribozyme fitness (log ratio)” value was -0.7.
